B1: Antibody 5 (SS6V5-C3) (antibody, V domains shown)
VH: EVQLVQSGAEVRKPGESLKISCKTSGYTFTHYWIGWVRQLPGKGLEWMGIIYPDDSDTKYSPSFQGQITISADKSISTAYLQWNSLKASDTAMYFCATADIVVGSNFFDHWGQGTLVTVSS
VL: DIQMTQSPSTLSASVGDRVTITCRASQSISTWLAWYQQKPGKPPKVLIYKASILESGVSSRFSGSGSGTEFTLTISSLQPDDFATYYCQHYNSYIKTFGQGTKVEIK
B2: Antibody 2 (SS6V2-G1) (antibody, V domains shown)
VH: EVQLVESGGGLVQPGGSLRLSCAASGFTVSSNYMSWVRQAPGKGLEWVSVIYSGGSTFYADSVKGRFTISRDNSKNTLYLQMNSLRAEDTAVYYCARELRHYFDYWGQGTLVTVSS
VL: DIQLTQSPSFLSASVGDRVTITCRASQGISSYLAWYQQKPGKAPKLLIYAASTLQSGVPSRFSGSGSGTEFTLTISSLQPEDFATYYCQQLNSYPPYSFGQGTKVEIK
B3: Antibody 6 (SS6V6-C4) (antibody, V domains shown)
VH: EVQLVESGGGLVQPGGSLRLSCSASGFTFNTYAMHWVRQAPGKGPEYVSGISSNGGITDYADSVKGRFTISRDNSKNTLYLQMSSLRPEDTAVYYCVKDSLATVVTLLSYWGQGTLVTVSS
VL: DIQMTQSPSSLSASVGDRVTITCRASQTISSYLNWFQQKPGKAPKLLIYAASSLQSGVPSRFSGSGSGTDFTLTISSLQPEDFAIYYCQQSYSTPGTFGQGTKVEIK
B4: Antibody 15 (SS6V15-F6) (antibody, V domains shown)
VH: EVQLVESGGGVVQPGRSLRLSCAASGFTFSSYAIHWVRQAPGKALEWVALISYDGRTKYYADSVKGRFTISRDNSKNTLYLQMNSLRAEDTAVYYCARLDIIITPPANDYWGQGTLVTVSS
VL: EIVLTQSPGTLSLSPGDRATVSCRASQIVSSNYLAWYQQKPGQVPRLLIYDASSRATGIPDRFSGSGSGTDFTLTISRLEPEDFAVYYCHQYGDSRRTFGQGTKVDIK
B5: Antibody 1 (SS6V1-B5) (antibody, V domains shown)
VH: EVQLVESGGGLVQPGGSLRLSCAASGFILRNYEMQWVRQAPGKGLEWVSVIGNTGGTFYAGSVKGRFTISRENAKNSLYLQMNSLRAEDTALYYCARVTYTSSPLPFWFLDLWGRGTLVTVSS
VL: DIQMTQSPSSLSASVGDRVTITCRASQSIGNYLNWYQQKSGKAPKILIYAASSLQSGVPSRFSGSGSGTDFTLTISSLQPEDFATYYCQQTYRTPPEDSFGQGTKVEIK
B6: Antibody 12 (SS6V12-E11) (antibody, V domains shown)
VH: EVQLVESGGGLVKPGGSLRLSCAASGFTFSTYNMNWVRQAPGKGLEWVSSISSSSSFMFYADSVKGRFTISRDNANNSLYLQMNSLRAEDTAVYYCARDYYDNSGYYYYGMDVWGQGTTVTVSS
VL: DIQMTQSPSSLSASVGDRVTITCRASQSIRTYLSWYQQKPGKAPELLIYAASNLQSGVPSRFSGSGSGTDFTLTISSLQPEDFATYYCLQTYSTPQITFGQGTRLEIE
B7: Antibody 8 (SS6V8-D3) (antibody, V domains shown)
VH: EVQLVESGGDLVQPGGSLRLSCSASGFTFSTYAMHWVRQAPGKGLDYVASIASDGGITTYADSVKGRFTISRDNSKNALYLQMSSLRVEDTAVYYCVKDSLTSVTTIFDCWGQGTLVTVSS
VL: DIQMTQSPSSLSASVGDSVTITCRASQNINSYLHWYQQKPGKAPKLLIYTASSLQSGVPSRFSASGSGTHFTLTISSLQPEDFATYYCQQSYTDPYTFGQGSKVEIK
B8: Antibody 9 (SS6V9-D11) (antibody, V domains shown)
VH: QVQLQESGPGLVKPSGTLSLTCAVSGGSISSNIWWSWVRQPPGKGLEWIGDIYHSGSTNYNPSLEGRVTISIDKSKNQFSLRLTSLTAADTAVYYCARAISQQYFDSSVLGYWGQGILVTVSS
VL: EIVMTQSPATLSVSPGERVTLSCRASQSVVTNLAWYQQKPGQAPRLLIYGASTRATGIPARFSGSGSGTEFTLTISSLQSEDFAIYHCQQYNNWPGYTFGQGTKVDIK
B9: Antibody 18 (SS6V18-E3) (antibody, V domains shown)
VH: EVQLVESGGGLVQPGGSLRLSCAASGFTFSSYAMHWVRQVPGKGLEYVSSITSNGGGTFYADSVKGRFTISRDNSKNTVYLQMGSLSTEDMALYYCAREGIQGWVTYFDYWGRGILVTVSS
VL: DIQMTQSPSSLSASIGDRVTITCRASQSISTNLNWYQQKPGKAPKLLIYAASSLPSGVPSRFSGSGSGTDFTLTISSLQPEDFANYLCQQTYTTPQYSFGQGTKVEIK
B10: Antibody 19 (SS6V19-F4) (antibody, V domains shown)
VH: EVQLVQSGSELKKPGASVKVSCKVSGYTFTDYNMNWVRQAPGQGLEWMGWINTNTGIPTYAQGFTGRFVFSLDTSVSTAYLQISSLKAEDTAIYYCARDGGWQLPYWYFDLWGRGTLVTVSS
VL: EIVMTQSPATLSVSPGERVTLSCRASYSFSSSLAWYQQKPGQAPRLLIYGTSTRATGVPVRFSGSGSGTEFTLTISSLQSEDLAVYYCQQYYSWPLTFGQGTKVDIK
B11: Antibody 14 (SS6V14-F2) (antibody, V domains shown)
VH: QVQLQESGPGLVKPSETLSLTCTVSGGPISSYYWTWIRQPPGKGLEWIGYIYYSGSTNYSPSLKSRVTMSLETSKNQFSLKLTSVTAADTAVYYCARDPLAEGAASSGFDNWGQGTLVTVSS
VL: DIQMTQSPSSLSASVGDRVTITCRASQSISSYLNWYQQKPGKAPKLLIYAASALQSGVPSRFSGSGSGTHFSLTINGLQPEDFATYSCQQSYTTPRTFGPGTKVEIK
B12: Antibody 7 (SS6V7-C5) (antibody, V domains shown)
VH: EVQLVQSGAEVKKPGESLKISCKGSENIFSGYWIGWVRQMPGKGLEWMGIIYPDDSDTRYNPSFQGQVTISADQSISTAYLQWSRLKASDTAMYYCARHLGGGSSWPIDYWGQGTLVTVSS
VL: DIQMTQSPSSLSASVGDRVTITCRANQGISNYLAWFQQKPGKAPKSLIYAASSLQSGVPSKFSGNRSGTDFTLTISSLQPEDFATYYCQQYSSYPFTFGGGTKVEIK
B13: Antibody 10 (SS6V10-E1) (antibody, V domains shown)
VH: EVQLVQSGAEVKKPGESLKISCQGSEDSFTGYWIGWVRQLPGKGLEWMGFIYPDDGDTRYSPAFQGLVTFSADKSITTAYLQWSSLKASDTAIYFCARHLGGGSSWPIDSWGQGTQVTVSS
VL: B12 VL with N26S, S30R, N65S, R66G, S67Y, S76N, S92N, S93N, Y94H

Residue numbers refer to the chain shown, from its start.

One assay deals with SARS-CoV-1 RBD (SARS-CoV). Description: sVNT, cPass kit format with SARS-CoV-1 RBD-HRP; HEK293 supernatant.
B1 gave a sVNT SARS-CoV-1 (% I) of 11.7%.

As to B2, the sVNT SARS-CoV-1 (% I) was found to be 1.35%.

In turn, B3 displayed a sVNT SARS-CoV-1 (% I) of 30.5%.

Regarding B4, the sVNT SARS-CoV-1 (% I) amounted to 17.5%.

As for B5, the sVNT SARS-CoV-1 (% I) was 52.1%.

In turn, B6 had a sVNT SARS-CoV-1 (% I) of 50.4%.

B7 yielded a sVNT SARS-CoV-1 (% I) of 36.1%.

Molecule B8 displayed a sVNT SARS-CoV-1 (% I) of 45.2%.

Regarding B9, the sVNT SARS-CoV-1 (% I) turned out to be 43.7%.

B10 showed a sVNT SARS-CoV-1 (% I) of 61.2%.

As to B11, the sVNT SARS-CoV-1 (% I) was 18.1%.

Turning to B12, the sVNT SARS-CoV-1 (% I) amounted to 20.8%.

In the case of B13, the sVNT SARS-CoV-1 (% I) stood at 15.4%.

The target in the next assay is SARS-CoV-2 RBD (SARS-CoV-2). Description: sVNT, cPass kit with SARS-CoV-2 RBD-HRP; HEK293 supernatant.
B1 yielded a sVNT SARS-CoV-2 (% I) of 32.3%.

B2 showed a sVNT SARS-CoV-2 (% I) of 20.2%.

The molecule B3 showed a sVNT SARS-CoV-2 (% I) of 31.7%.

B4 displayed a sVNT SARS-CoV-2 (% I) of 15.7%.

In turn, B5 yielded a sVNT SARS-CoV-2 (% I) of 46.3%.

B6 gave a sVNT SARS-CoV-2 (% I) of 45%.

In the case of B7, the sVNT SARS-CoV-2 (% I) is 33.1%.

B8 returned a sVNT SARS-CoV-2 (% I) of 39.2%.

Regarding B9, the sVNT SARS-CoV-2 (% I) amounted to 15.5%.

In turn, B10 had a sVNT SARS-CoV-2 (% I) of 38.8%.

For B11, the sVNT SARS-CoV-2 (% I) turned out to be 33.4%.

In the case of B12, the sVNT SARS-CoV-2 (% I) was 14.9%.

On to B13, for which the sVNT SARS-CoV-2 (% I) was 22.7%.

The target in the next assay is SARS-CoV-1 RBD (SARS-CoV). Description: ELISA, 100 ng coated RBD, neat supernatant, anti-human IgG-HRP.
For the molecule B1, the Binding SARS-CoV-1 is 1.16.

As to B2, the Binding SARS-CoV-1 came to 0.008.

As for B3, the Binding SARS-CoV-1 is 1.29.

Consider B4, for which the Binding SARS-CoV-1 turned out to be 0.831.

For B5, the Binding SARS-CoV-1 amounted to 1.35.

In turn, B6 had a Binding SARS-CoV-1 of 1.21.

With B7, the Binding SARS-CoV-1 was determined as 1.42.

B8: the Binding SARS-CoV-1 amounted to 1.29.

For B9, the Binding SARS-CoV-1 turned out to be 1.33.

The molecule B10 gave a Binding SARS-CoV-1 of 1.15.

As for B11, the Binding SARS-CoV-1 stood at 1.06.

Consider B12, for which the Binding SARS-CoV-1 was determined as 0.972.

The molecule B13 gave a Binding SARS-CoV-1 of 1.1.

For a further assay, the target named is SARS-CoV-2 RBD (SARS-CoV-2). The description is as above.
As for B1, the Binding SARS-CoV-2 came to 1.68.

As to B2, the Binding SARS-CoV-2 turned out to be 0.947.

With B3, the Binding SARS-CoV-2 turned out to be 1.92.

As for B4, the Binding SARS-CoV-2 was determined as 0.674.

The molecule B5 displayed a Binding SARS-CoV-2 of 1.73.

For B6, the Binding SARS-CoV-2 was found to be 1.45.

Take B7: the Binding SARS-CoV-2 turned out to be 1.94.

The molecule B8 showed a Binding SARS-CoV-2 of 1.81.

In the case of B9, the Binding SARS-CoV-2 came out at 1.11.

As for B10, the Binding SARS-CoV-2 turned out to be 0.641.

With B11, the Binding SARS-CoV-2 was determined as 1.54.

The molecule B12 registered a Binding SARS-CoV-2 of 1.16.

On to B13, for which the Binding SARS-CoV-2 came to 1.31.

For the origin of these results see patent US20240254204A1.
